Experimental data published in US20110171215A1 (published 2011).

B1: Clone 2 anti-PD-1 antibody (antibody, V domains shown)
VH: QVQLQQPGAELVKPGASVKLSCKASGYTFTTYYLYWVRQRPGQGLEWIGGINPSNGGTNFNEKFKSKATLTVDKSSSTAYMQLNSLTSEDSAVYYCTRRDYRYDRGFDYWGQGTSVTV
VL: DIVLTQSPASLAVSLGQRATISCRASKSVSTSGFNYIHWYQQKPGQPPKLLIYLASNLESGVPARFSGSGSGTDFTLNIHPVEDEDAATYYCQHSRELPLTFGAGTKLEIK
B2: Clone 10 anti-PD-1 antibody (antibody, V domains shown)
VH: DVQLQESGPGLVKPSQSLSLTCTVTGYSITSDYAWNWIRQFPGNKLEWMGYINYSGSTSYNPSLKSRISITRDTSKNQFFLQLNSVTTEDTATYYCARWIGSSAWYFDVWGAGTTVTV
VL: DVLMTQTPLSLPVSLGDQASISCRSGQNIVHSNGNTYLEWYLQKPGQSPKLLIYKVSNRFFGVPDRISGSGSGTDFTLKISRVEAEDLGVYFCFQGSHVPFTFGSGTKLEIK
B3: Clone 19 anti-PD-1 antibody (antibody, V domains shown)
VH: QVQLQQSGAELVKPGASVKMSCKAFGYTFTTYPIEWMKQNHGKSLEWIGNFHPYNDDTKYNEKFKGKAKLTVEKSSTTVYLELSRLTSDDSAVYYCARENYGSHGGFVYWGQGTLVTV
VL: ENVLTQSPAIMSASPGEKVTMTCRASSSVISSYLHWYQQKSGASPKLWIYSTSNLASGVPDRFSGSGSGTSYSLTISSVEAEDAATYYCQQYNGYPLTFGAGTKLEIK

Target: Monomeric soluble human PD-1 (human, UniProt Q15116 25-170)
Experiment: SPR

Chain of Monomeric soluble human PD-1 (Q15116 25-170): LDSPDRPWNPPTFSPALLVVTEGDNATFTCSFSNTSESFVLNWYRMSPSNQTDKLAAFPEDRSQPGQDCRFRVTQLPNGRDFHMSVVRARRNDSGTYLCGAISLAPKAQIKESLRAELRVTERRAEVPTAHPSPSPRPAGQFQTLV

Row | koff [s⁻¹] | Binder
1 | ~0.0027 | B1
2 | ~0.4 | B2
3 | ~0.0013 | B3
